This note sets out measurements from the supplement of paper PMC5998384.

Data set [1] concerns HeLa Kyoto. The data set can be described thus: solubility in G1/S (NP-40 vs SDS abundance) (log2 ratio); higher = more soluble. The settings on record: cell cycle stage: G1/S.
The subject of data set [2] is HeLa Kyoto. The data set can be described thus: melting temperature (median over replicates), in situ; higher = more thermally stable.
Data set [3] relates to HeLa Kyoto. The experiment in a line: solubility change mitosis vs G1/S (difference of NP-40 vs SDS log2 ratios) (log2 ratio difference); higher = more soluble in mitosis.
The test system of data set [4] is HeLa Kyoto. The data set can be described thus: thermal stability score vs G1/S (z-score of summed log2 fold changes over temperatures); higher = more thermally stable than in G1/S.
[5] abbreviates: cell cycle stage: early G1 (4.5 h after nocodazole release).
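Wherever melting temperature (median over replicates), in situ is given: HeLa Kyoto cells synchronized by double thymidine or nocodazole block, proteins quantified by TMT10plex mass spectrometry, three independent biological replicates.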
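Wherever solubility change mitosis vs G1/S (difference of NP-40 vs SDS log2 ratios) is given: synchronized HeLa Kyoto cells (double thymidine block for G1/S, nocodazole release for mitosis), protein amounts in NP-40 versus SDS lysates quantified by mass spectrometry, three biological replicates.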
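Wherever solubility in G1/S (NP-40 vs SDS abundance) is given: HeLa Kyoto cells arrested at G1/S by double thymidine block, proteins quantified by TMT10plex mass spectrometry in mild NP-40 versus SDS extracts, three biological replicates.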
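Wherever thermal stability score vs G1/S (z-score of summed log2 fold changes over temperatures) is given: synchronized HeLa Kyoto cells, proteins quantified by TMT10plex mass spectrometry, three biological replicates, mitosis taken 0.5 h after nocodazole release, G1/S directly after double thymidine block.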

On to “MSLYDDLGVETSDSKTEGWSKNFKLLQSQLQVKKAALTQAKSQRTKQSTVLAPVIDLKRGGSSDDRQIVDTPPHVAAGLKDPVPSGFSAGEVLIPLADEYDPMFPNDYEKVVKRQREERQRQRELERQKEIEEREKRRKDRHEASGFARRPDPDSDEDEDYERERRKRSMGGAAIAPPTSLVEKDKELPRDFPYEEDSRPRSQSSKAAIPPPVYEEQDRPRSPTGPSNSFLANMGGTVAHKIMQKYGFREGQGLGKHEQGLSTALSVEKTSKRGGKIIVGDATEKDASKKSDSNPLTEILKCPTKVVLLRNMVGAGEVDEDLEVETKEECEKYGKVGKCVIFEIPGAPDDEAVRIFLEFERVESAIKAVVDLNGRYFGGRVVKACFYNLDKFRVLDLAEQV [RBM17]”, for which the “solubility in G1/S (log2)” value in data set [1] is -0.32. For the same sequence, the melting temperature in data set [2] (cell cycle stage: G1/S) stood at 48.3 °C; in data set [2] (cell cycle stage: mitosis), 49.3 °C. Besides, the “solubility change mitosis (log2)” value in data set [3] came out at 0.318. In addition, the figures for the thermal stability score in data set [4] (setting [5]) and in data set [4] (cell cycle stage: mitosis) were 0.948 and 4.62, respectively.
In the case of “MSLYPSLEDLKVDKVIQAQTAFSANPANPAILSEASAPIPHDGNLYPRLYPELSQYMGLSLNEEEIRANVAVVSGAPLQGQLVARPSSINYMVAPVTGNDVGIRRAEIKQGIREVILCKDQDGKIGLRLKSIDNGIFVQLVQANSPASLVGLRFGDQVLQINGENCAGWSSDKAHKVLKQAFGEKITMTIRDRPFERTITMHKDSTGHVGFIFKNGKITSIVKDSSAARNGLLTEHNICEINGQNVIGLKDSQIADILSTSGTVVTITIMPAFIFEHIIKRMAPSIMKSLMDHTIPEV [SDCBP]”, in data set [1], the “solubility in G1/S (log2)” value was 0.00564. The values for the melting temperature in data set [2] (cell cycle stage: G1/S) and in data set [2] (cell cycle stage: mitosis) were 52.6 °C and 51.4 °C, respectively. Moreover, the “solubility change mitosis (log2)” value in data set [3] is -0.0317. Further, the values for the thermal stability score in data set [4] (setting [5]) and in data set [4] (cell cycle stage: mitosis) were -1.02 and -6.31, respectively.
With “MSNKEGSGGFRKRKHDNFPHNQRREGKDVNSSSPVMLAFKSFQQELDARHDKYERLVKLSRDITVESKRTIFLLHRITSAPDMEDILTESEIKLDGVRQKIFQVAQELSGEDMHQFHRAITTGLQEYVEAVSFQHFIKTRSLISMDEINKQLIFTTEDNGKENKTPSSDAQDKQFGTWRLRVTPVDYLLGVADLTGELMRMCINSVGNGDIDTPFEVSQFLRQVYDGFSFIGNTGPYEVSKKLYTLKQSLAKVENACYALKVRGSEIPKHMLADVFSVKTEMIDQEEGIS [TSNAX]”, the “solubility in G1/S (log2)” value in data set [1] was determined as 0.379. The melting temperature is 54.7 °C in data set [2] (cell cycle stage: G1/S) and 56.3 °C in data set [2] (cell cycle stage: mitosis). The “solubility change mitosis (log2)” value in data set [3] is -0.0987. For the same sequence, the figures for the thermal stability score in data set [4] (setting [5]) and in data set [4] (cell cycle stage: mitosis) were -0.435 and -1.45, respectively.
On to “MSNMEKHLFNLKFAAKELSRSAKKCDKEEKAEKAKIKKAIQKGNMEVARIHAENAIRQKNQAVNFLRMSARVDAVAARVQTAVTMGKVTKSMAGVVKSMDATLKTMNLEKISALMDKFEHQFETLDVQTQQMEDTMSSTTTLTTPQNQVDMLLQEMADEAGLDLNMELPQGQTGSVGTSVASAEQDELSQRLARLRDQV [CHMP1B]”, for which the “solubility in G1/S (log2)” value in data set [1] came out at 0.304. Also, the melting temperature in data set [2] (cell cycle stage: G1/S) was 51.8 °C; in data set [2] (cell cycle stage: mitosis), 52.2 °C. The “solubility change mitosis (log2)” value in data set [3] was 0.158. In addition, the thermal stability score was 0.0467 in data set [4] (setting [5]) and -0.997 in data set [4] (cell cycle stage: mitosis).
For the sequence “MSNPFAHLAEPLDPVQPGKKFFNLNKLEDSRYGRLPFSIRVLLEAAIRNCDEFLVKKQDIENILHWNVTQHKNIEVPFKPARVILQDFTGVPAVVDFAAMRDAVKKLGGDPEKINPVCPADLVIDHSIQVDFNRRADSLQKNQDLEFERNRERFEFLKWGSQAFHNMRIIPPGSGIIHQVNLEYLARVVFDQDGYYYPDSLVGTDSHTTMIDGLGILGWGVGGIEAEAVMLGQPISMVLPQVIGYRLMGKPHPLVTSTDIVLTITKHLRQVGVVGKFVEFFGPGVAQLSIADRATIANMCPEYGATAAFFPVDEVSITYLVQTGRDEEKLKYIKKYLQAVGMFRDFNDPSQDPDFTQVVELDLKTVVPCCSGPKRPQDKVAVSDMKKDFESCLGAKQGFKGFQVAPEHHNDHKTFIYDNTEFTLAHGSVVIAAITSCTNTSNPSVMLGAGLLAKKAVDAGLNVMPYIKTSLSPGSGVVTYYLQESGVMPYLSQLGFDVVGYGCMTCIGNSGPLPEPVVEAITQGDLVAVGVLSGNRNFEGRVHPNTRANYLASPPLVIAYAIAGTIRIDFEKEPLGVNAKGQQVFLKDIWPTRDEIQAVERQYVIPGMFKEVYQKIETVNESWNALATPSDKLFFWNSKSTYIKSPPFFENLTLDLQPPKSIVDAYVLLNLGDSVTTDHISPAGNIARNSPAARYLTNRGLTPREFNSYGSRRGNDAVMARGTFANIRLLNRFLNKQAPQTIHLPSGEILDVFDAAERYQQAGLPLIVLAGKEYGAGSSRDWAAKGPFLLGIKAVLAESYERIHRSNLVGMGVIPLEYLPGENADALGLTGQERYTIIIPENLKPQMKVQVKLDTGKTFQAVMRFDTDVELTYFLNGGILNYMIRKMAK [ACO1]”, the “solubility in G1/S (log2)” value in data set [1] was -0.0477. Also, the melting temperature worked out at 54 °C in data set [2] (cell cycle stage: G1/S) and 53.1 °C in data set [2] (cell cycle stage: mitosis). The “solubility change mitosis (log2)” value in data set [3] is -0.178. In addition, the thermal stability score was -1.5 in data set [4] (setting [5]) and -0.466 in data set [4] (cell cycle stage: mitosis).
Consider “MSPARRCRGMRAAVAASVGLSEGPAGSRSGRLFRPPSPAPAAPGARLLRLPGSGAVQAASPERAGWTEALRAAVAELRAGAVVAVPTDTLYGLACAASCSAALRAVYRLKGRSEAKPLAVCLGRVADVYRYCRVRVPEGLLKDLLPGPVTLVMERSEELNKDLNPFTPLVGIRIPDHAFMQDLAQMFEGPLALTSANLSSQASSLNVEEFQDLWPQLSLVIDGGQIGDGQSPECRLGSTVVDLSVPGKFGIIRPGCALESTTAILQQKYGLLPSHASYL [YRDC]”, for which the “solubility in G1/S (log2)” value in data set [1] was 0.378. In addition, the melting temperature in data set [2] (cell cycle stage: G1/S) is 52.3 °C; in data set [2] (cell cycle stage: mitosis), 52.7 °C. Further, the “solubility change mitosis (log2)” value in data set [3] is -0.0312. Besides, the thermal stability score came out at 0.325 in data set [4] (setting [5]) and 0.668 in data set [4] (cell cycle stage: mitosis).
